Source: patent US20110076682A1 (WISCONSIN ALUMNI RESEARCH FOUNDATION, published 2011)

Experiments:
[1] = molecular target: T1, VeA::TAP* (VeA tagged at its C terminus by TAP tag, veA::ctap*) (Aspergillus nidulans, UniProt C8VTV4 1-573); test: tandem affinity purification and mass spectrometry, dark
T1 construct: 85 kDa on the immunoblot; also called tagged VeA; VeA::TAP* tag
T1 sequence: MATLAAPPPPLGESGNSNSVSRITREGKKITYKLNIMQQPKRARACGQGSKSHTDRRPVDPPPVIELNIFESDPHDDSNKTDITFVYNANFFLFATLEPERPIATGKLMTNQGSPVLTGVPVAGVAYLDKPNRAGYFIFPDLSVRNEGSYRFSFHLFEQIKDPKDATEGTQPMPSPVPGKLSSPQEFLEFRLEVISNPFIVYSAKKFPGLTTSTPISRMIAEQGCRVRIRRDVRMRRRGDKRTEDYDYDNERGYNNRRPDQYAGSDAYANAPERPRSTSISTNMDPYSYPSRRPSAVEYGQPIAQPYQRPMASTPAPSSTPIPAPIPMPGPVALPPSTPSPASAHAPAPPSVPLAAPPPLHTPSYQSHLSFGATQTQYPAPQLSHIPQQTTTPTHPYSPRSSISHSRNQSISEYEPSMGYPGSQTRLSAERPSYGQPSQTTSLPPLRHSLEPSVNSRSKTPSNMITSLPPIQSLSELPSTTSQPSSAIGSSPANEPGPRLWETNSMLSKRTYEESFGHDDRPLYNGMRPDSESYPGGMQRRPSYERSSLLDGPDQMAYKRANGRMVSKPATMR

N-EYFP::VeA = molecular target: T2, N-EYFP::VeA (Aspergillus nidulans, UniProt C8VTV4 1-573); test: bimolecular fluorescence complementation in living A. nidulans cells
T2 construct: BiFC construct expressed in A. nidulans (pME3188, pME3189); also called enhanced yellow fluorescent protein fused to the N terminus of veA; not shown: N-terminal part of EYFP (n-eyfp)
T2 sequence: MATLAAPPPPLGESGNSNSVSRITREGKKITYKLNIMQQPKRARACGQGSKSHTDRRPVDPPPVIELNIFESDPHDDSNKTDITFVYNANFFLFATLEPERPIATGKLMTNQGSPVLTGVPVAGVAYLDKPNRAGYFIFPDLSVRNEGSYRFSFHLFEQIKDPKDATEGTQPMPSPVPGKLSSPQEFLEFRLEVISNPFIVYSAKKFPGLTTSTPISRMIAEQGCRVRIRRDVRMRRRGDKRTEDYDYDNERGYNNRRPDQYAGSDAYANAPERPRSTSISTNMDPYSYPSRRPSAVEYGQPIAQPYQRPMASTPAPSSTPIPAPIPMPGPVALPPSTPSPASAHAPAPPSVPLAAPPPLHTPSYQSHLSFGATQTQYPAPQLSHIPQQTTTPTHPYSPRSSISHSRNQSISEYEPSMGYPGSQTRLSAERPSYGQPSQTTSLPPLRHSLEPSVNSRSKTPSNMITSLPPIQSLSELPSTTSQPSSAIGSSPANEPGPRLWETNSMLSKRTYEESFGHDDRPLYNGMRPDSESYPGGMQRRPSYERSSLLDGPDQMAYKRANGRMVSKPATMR

[2] = molecular target: T1, VeA::TAP* (VeA tagged at its C terminus …); test: tandem affinity purification of veA::ctap* and mass spectrometry, dark
[3] = molecular target: T3, VeA yeast two-hybrid fusion (veA ORF in pTLexA or pGAD424) (Aspergillus nidulans, UniProt C8VTV4 1-573); test: yeast two-hybrid
T3 construct: also called pNJ04; pNJ05
T3 sequence: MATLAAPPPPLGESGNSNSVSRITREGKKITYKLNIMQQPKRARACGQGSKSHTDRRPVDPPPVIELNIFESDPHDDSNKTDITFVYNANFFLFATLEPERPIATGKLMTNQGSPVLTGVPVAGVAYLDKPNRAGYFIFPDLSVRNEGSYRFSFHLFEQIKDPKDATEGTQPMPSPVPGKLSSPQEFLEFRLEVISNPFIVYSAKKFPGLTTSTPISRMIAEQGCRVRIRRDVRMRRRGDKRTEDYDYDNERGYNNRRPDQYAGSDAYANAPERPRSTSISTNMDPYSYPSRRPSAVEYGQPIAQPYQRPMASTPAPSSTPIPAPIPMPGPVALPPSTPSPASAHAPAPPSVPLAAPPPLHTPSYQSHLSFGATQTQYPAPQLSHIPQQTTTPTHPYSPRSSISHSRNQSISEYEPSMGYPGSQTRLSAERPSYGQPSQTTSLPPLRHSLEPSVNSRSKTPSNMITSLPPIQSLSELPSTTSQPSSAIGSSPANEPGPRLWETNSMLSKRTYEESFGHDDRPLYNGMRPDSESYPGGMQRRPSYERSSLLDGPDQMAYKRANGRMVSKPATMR

B1: regulator of sporogenesis VosA (other)
chain: MSAANYPDPSLPRPSTSDDFELIVRQNPNRARVAGGKEKERKPVDPPPIVQIRVREEGTYLAQHYLQSPYFFMSCSLYDAQEDAPASIPPSTALTGTLVSSLHRLKDVDNTDGGFFVWGDLSIKVEGDFRLKFSLFEMRKTDVVFLKSIVSERFTVSPPKSFPGMAESTFLSRSFADQGVKLRIRKEPRTLIKRTAPRPEEYPQAAIPRSPSDRTAMQIPGSSYPAPPYQPTSRDYSYYAPVKRQRTSVDYGARGMYDADGRMRQMETYPQTATLYGQPGGYPTPMMGYPSGHGGVPDYAMSYGLPPSAQVPQMQDPAAQSRSSQQATMQSLGMVNPPGTPTPDSARAMMQQAYPRPQYSASTAVLPPLQQSRNYPQGTNGATRGYYEQSPQATPILPSQPLGTSEAERYGVPPGHTGYDHTGSANGTPR
notes: Endogenous untagged protein co-purified from A. nidulans extracts
binding result [1]: no binding

B2: C-EYFP::LaeA (other)
chain: MFEMGPVGTRLPAMTSPAHNHYSYHSPTSSDRGRSRQNSDAMDIQSITEREPATRYAVAGGPAPWNRNGSPSMSPMYSNNSERNQFHEENGRTYHGFRRGMYFLPCDEQEQDRLDIFHKLFTVARVSESLIYAPHPTNGRFLDLGCGTGIWAIEVANKYPDAFVAGVDLAPIQPPNHPKNCEFYAPFDFEAPWAMGEDSWDLIHLQMGCGSVMGWPNLYRRIFAHLRPGAWFEQVEIDFEPRCDDRSLDGTALRHWYDCLKQATAETMRPIAHSSRDTIKDLQDAGFTEIDHQIVGLPLNPWHQDEHERKVARWYNLAVSESIENLSLAPFSRVYRWPLERIQQLAADVKSEAFNKEIHAYNILHIYQARKPLR
notes: BiFC construct expressed in A. nidulans (pME3188, strain AGB307); not shown: C-terminal part of EYFP (c-eyfp)
binding result (N-EYFP::VeA): binds

B3: LaeA (other)
chain: MFEMGPVGTRLPAMTSPAHNHYSYHSPTSSDRGRSRQNSDAMDIQSITEREPATRYAVAGGPAPWNRNGSPSMSPMYSNNSERNQFHEENGRTYHGFRRGMYFLPCDEQEQDRLDIFHKLFTVARVSESLIYAPHPTNGRFLDLGCGTGIWAIEVANKYPDAFVAGVDLAPIQPPNHPKNCEFYAPFDFEAPWAMGEDSWDLIHLQMGCGSVMGWPNLYRRIFAHLRPGAWFEQVEIDFEPRCDDRSLDGTALRHWYDCLKQATAETMRPIAHSSRDTIKDLQDAGFTEIDHQIVGLPLNPWHQDEHERKVARWYNLAVSESIENLSLAPFSRVYRWPLERIQQLAADVKSEAFNKEIHAYNILHIYQARKPLR
notes: Endogenous untagged protein co-purified from A. nidulans extracts; also called regulator LaeA
binding result [2]: binds

B4: VelB yeast two-hybrid fusion (velB ORF in pTLexA or pGAD424) (other)
chain: MYAVEDRAHSGHHPPPLSMDRIPPPSTMYPSSAGPSAMVSPAGQPEPESLSTVHDGRIWSLQVVQQPIRARMCGFGDKDRRPITPPPCIRLIVKDAQTQKEVDINSLDSSFYVVMADLWNADGTHEVNLVKHSATSPSISTAMSSSYPPPPHPTSSDYPASYQTNPYGQPVGQPVGQPVGYAGVGNYYGGSTQLQYQNAYPNPQAQYYQPMYGGMAQPQMPAAQPVTPGPGGMFTRNLIGCLSASAYRLYDTEDKIGVWFVLQDLSVRTEGIFRLKFSFVNVGKSVSDLPQSDIAEVINKGTAPILASTFSEPFQVFSAKKFPGVIESTPLSKVFANQGIKIPIRKDGVKGQGSRGRHSDEDDGLDNEY
notes: also called pNJ20; pNJ23
binding result [3]: binds

B5: C-EYFP::VelB (other)
chain: MYAVEDRAHSGHHPPPLSMDRIPPPSTMYPSSAGPSAMVSPAGQPEPESLSTVHDGRIWSLQVVQQPIRARMCGFGDKDRRPITPPPCIRLIVKDAQTQKEVDINSLDSSFYVVMADLWNADGTHEVNLVKHSATSPSISTAMSSSYPPPPHPTSSDYPASYQTNPYGQPVGQPVGQPVGYAGVGNYYGGSTQLQYQNAYPNPQAQYYQPMYGGMAQPQMPAAQPVTPGPGGMFTRNLIGCLSASAYRLYDTEDKIGVWFVLQDLSVRTEGIFRLKFSFVNVGKSVSDLPQSDIAEVINKGTAPILASTFSEPFQVFSAKKFPGVIESTPLSKVFANQGIKIPIRKDGVKGQGSRGRHSDEDDGLDNEY
notes: BiFC construct expressed in A. nidulans (pME3189, strain AGB388); not shown: C-terminal part of EYFP (c-eyfp)
binding result (N-EYFP::VeA): binds
